We go through 3 molecules from patent publication US20120263745A1 (DUKE UNIVERSITY, published 2012).

Series [1] addresses T1, Recombinant Chlamydial Protease-like Activity Factor (CPAF), his-tagged, expressed in E. coli BL21 (DE3) from … (C. trachomatis, UniProt O84866 17-234; O84866 276-601).
T1 sequence 1: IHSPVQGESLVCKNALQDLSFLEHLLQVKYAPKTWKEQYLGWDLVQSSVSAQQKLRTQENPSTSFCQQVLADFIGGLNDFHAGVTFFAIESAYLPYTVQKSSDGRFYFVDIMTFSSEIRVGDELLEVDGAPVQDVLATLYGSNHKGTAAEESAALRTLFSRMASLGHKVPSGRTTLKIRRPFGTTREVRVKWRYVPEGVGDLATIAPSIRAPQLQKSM
T1 sequence 2: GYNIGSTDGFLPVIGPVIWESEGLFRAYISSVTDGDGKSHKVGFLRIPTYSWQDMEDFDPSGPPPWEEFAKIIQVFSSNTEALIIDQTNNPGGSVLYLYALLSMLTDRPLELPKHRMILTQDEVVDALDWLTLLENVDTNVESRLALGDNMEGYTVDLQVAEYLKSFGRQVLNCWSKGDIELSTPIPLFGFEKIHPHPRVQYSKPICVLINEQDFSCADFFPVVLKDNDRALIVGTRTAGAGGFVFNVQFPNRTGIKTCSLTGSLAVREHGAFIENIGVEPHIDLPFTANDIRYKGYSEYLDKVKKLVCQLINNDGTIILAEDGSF
Kind of series: cell-based or functional assay.

In series [2] the target is Recombinant Ct584, T3S needle component.
Series [3] has as its target T2, Abz-tagged model CPAF substrate Abz-V-R-L-R-S-S-V-P-G-V-NH2 (SEQ ID NO:9), derived from human vimentin.
T2 chain: VRLRSSVPGV

Series [4] has as its target Recombinant CdsQ, type-III secretion (T3S) core component.
Series [5] has as its target Recombinant Mcsc, T3S chaperone.
Series [6] addresses Endogenous Ct694 from EB lysates.
For series [7], the target named is Endogenous Tarp from EB lysates.
In series [8] the target is Endogenous Ct288 from EB lysates.
The target of series [9] is T3, Peptide of SEQ ID NO:7 (CPAF inhibitory segment plus nine C-terminal arginines) (not fully specified).
T3 chain: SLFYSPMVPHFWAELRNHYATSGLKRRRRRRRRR

Series [10] addresses T4, Sequence-scrambled control peptide H-NFALSHFRLPLSTYKEMPYVSHWAGRRRRRRRRR-NH2 (SEQ ID NO:11).
T4 chain: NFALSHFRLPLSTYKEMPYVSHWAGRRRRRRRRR

Where no end group is shown, it is not given here.

With SLFYSPMVPHFWAELRNHYATSGLKRRRRRRRRR (not fully specified (C-terminus)) [Peptide of SEQ ID NO:7 (CPAF inhibitory segment plus nine C-terminal arginines)], in series [1], the “IC50, inhibition of CPAF cleavage of the Abz-tagged model substrate SEQ ID NO:9 (HPLC-based assay, 62.5 nM CPAF, 0.5 mM substrate)” value came out at 50 nM; the “IC50, inhibition of CPAF cleavage of the Abz/3-nitrotyrosine model substrate SEQ ID NO:10 (FRET-based assay, 62.5 nM CPAF)” value was determined as 30 nM; the “fold greater inhibition than SEQ ID NO:2 (HPLC-based assay)” value was roughly 30 fold; the “fold greater inhibition than lactacystin (HPLC-based assay)” value was roughly 200 fold.
As for SLFYSPMVPHFWAELRNHYATSGLK (not fully specified (C-terminus)) [Peptide of SEQ ID NO:2 (CPAF inhibitory segment, SLFYSPMVPHFWAELRNHYATSGLK)], the “IC50, inhibition of CPAF cleavage of the Abz-tagged model substrate SEQ ID NO:9 (HPLC-based assay, 62.5 nM CPAF, 0.5 mM substrate)” value in series [1] was 1600 nM.

B1: Recombinant Chlamydial Protease-like Activity Factor (CPAF), his-tagged, expressed in E. coli BL21 (DE3) from pET30b-CPAF (protein)
chain 1: T1 sequence 1
chain 2: T1 sequence 2
As for B1, the “incubation with recombinant CPAF, immunoblot (FIG. 5B)” value in [2], in [4] and in series [5] was “Recombinant CPAF does not cleave chlamydial proteins that are resistant to processing by cytosols form infected HeLa cells” each time. In series [3], the “KM of CPAF proteolysis of the model substrate (HPLC-based assay)” value is listed as “KM=0.88 mM”. Also, in [3], the “kcat of CPAF proteolysis of the model substrate (HPLC-based assay)” value is on record as “kcat=13.2 5^-1”. Besides, the “kcat/KM of CPAF proteolysis of the model substrate (HPLC-based assay)” value in series [3] is listed as “kcat/KM=1.5×10^4 M^-1s^-1”. Also, the “incubation of EB lysates with recombinant CPAF, immunoblot (FIG. 7)” value in series [6] is “specifically degraded”; in series [7], “specifically degraded”; in [8] it was “Ct694, TARP and Ct288 were cleaved”. In addition, the “CPAF cleavage of GST-chlamydial substrates in vitro (SDS-PAGE, FIG. 8E)” value is “broadly inhibited degradation of CPAF substrates in vitro and in vivo” in series [9]; “but not a scrambled sequence of equal molecular weight (SEQ ID NO:11)” in [10].
